Results as given in patent US20260209318A1 (NATIONAL UNIVERSITY OF SINGAPORE, published 2026).

Molecular target: SARS-CoV-2 spike protein RBD (SARS-CoV-2, UniProt P0DTC2 319-541)
Test: multiplex sVNT, RBD-coated beads, PE-hACE2 as competitor

B1: SS6V11-E7 (antibody, V domains shown)
VH: QVQLQESGPGLVKPSETLSLTCTVSGGFIGPHYWSWVRQPPGKGLEWIGYIYISGSTNYNPSLKSRLTISVDMSKSQFSLTLSSATAADTAVYYCARGGGYLETGPFEYWGQGTLVTVSS
VL: DIVMTQSPLSLPVTPGEPASISCRSSQSLLQNNGYNYLAWYLQKPGQSPQLLIYLSSTRASGVPDRFSGSGSGTDFTLKISRVEAEDVGVYYCMQSLQIPGTFGQGTRLEIK
B1: binds.
